Laboratory results reported in PMC9521807.

Molecular target: OsRMC-His (rice (Oryza sativa))
Assay: BLI

MoCel6A (analyte of the binding kinetics) (enzyme)
Kd: 21.9 nM
koff: 0.000845 s⁻¹
kon: 38900 M⁻¹ s⁻¹
